Results taken from the RNAGym collection of RNA variant scans (doi:10.1073/pnas.2313332121).
Fewer inactive variants are shown than the library holds.

B1: TPR 5TU (parent)
chain: GGAUCUUCUCGAUCUAACAAAAAAGACAAAUCUGCCACAAAGCUUGAGAGCAUCUUCGGAUGCAGAGGCGGCAGCCUUCGGUGGCGCGAUAGCGCCAACGUUCUCAACUAUGACACGCAAAACGCGUGCUCCGUUGAAUGGAGUUUAUCAUG

Variants of: B1
Test: polymerase ribozyme fitness, log enrichment relative to wild type (log ratio); higher = more active; in vitro selection for triplet polymerase activity
Method in brief: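 Each subunit of a heterodimeric triplet polymerase ribozyme was represented by a PCR-built, transcribed mutant library that underwent triplicate single-round in vitro selection with frozen incubation at −7 °C. Extended constructs were recovered by gel excision, streptavidin-bead capture and RT-PCR, and Illumina sequencing of input and output libraries kept genotypes with ≥10 input reads and ≥1 read per output. Fitness is the logarithm of genotype enrichment relative to wild-type enrichment, from inverse-variance-weighted replicate averages, with a logarithm base of 2.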

Going from GGAUCUUCUCGAUCUAACAAAAAAGACAAAUCUGCCAUAAAGCUUGAGGGCAUCUUCGGAUGCAGAGGCGGCAGCCUUCGGUGGCGCGAUAUCGCCAACGUUUUCAACUAUGACACGCAAAACUCGUGCUCCGUUGAAUGGAGUUUAUCAUG [C38U A49G G92U C103U G124U] to GGAUCUUCUCGAUCUAACAAAAAAGACAAAUCUGCCACAAAGCUUGAGAGCAUCUUCGGAUGCAGAGGCGGCAGCCUUCGGUGGUGCGAUAGCGCCAACGUUCUCAACUAUGACACGUAAAACGCGUGCUCCGUUGAAUGUAGUUUAUCAUG [C85U C118U G141U], the “polymerase ribozyme fitness (log ratio)” value rises from -1.7 to 0.748.

Compared with GGAUCUUCUCGAUCUAACAAAAAAGACAAAUCUGCCACAAAGCUUGAGAGCAUCUUCGGAUGCAGAGGCGGCAGCCUUCGGUGGCGCGAUAGCGCCAACGUUCUCAACUAUGACACGCAAAACGCGUGCUCCGUUGAAUGGAGGUUAGCAUG [U144G U148G], GGGUCUUCUCGAUCUAACAGAAAAGACAAAUCUGCCACAAAGCUUGAGAGCAUCUUCGGAUGCAGAGGCGGCAGCCUUCGGUGGCGCGAUAGCGCCAACGUUCUCAACUAUGACACGCAAAACGCGUGCUCCGUUGAAUGGAGUUUAUCAUG [A3G A20G] is higher in “polymerase ribozyme fitness (log ratio)” value: -3.38 for the first, -0.654 for the second.

Compared with GGAUCUUCUCGAUCUAACAAAAAAGACAAAUCUGCCAAAAAGCUUGAGAGCAUCUUCGGAUGCAGAGGCGGCAGCCUUCGGUGGUGUGAUAGCGCCAACGUUCUCAACUAUGACAAGCAAAACGCGUGCUCCGUUGAAUGGAGUUUAUCAUG [C38A C85U C87U C116A], GGAUCUUCUCGAUGUAACAAAAAAGACAAAUCUGCCACAAAGCUUGAGAGCAUCUUCGGAUGCAGAGGCGGCAGCCUUCGGUGGCGCGAUAGCGCGAACGUUCUCAACUAUGACACGCAAAACGCGUGCUCCGUUGAAUGGAGUUUAUCAUG [C14G C96G] is lower in “polymerase ribozyme fitness (log ratio)” value: -0.329 for the first, -2.81 for the second.

Compared with GGAUCUUCUCGAUCUAACAAAAAAGACAAAUCUGCCACAAAGCUUGAGAGCAUCUUCGGAUGCAGAGGCGGCAACCUUCGGUGGCGCGAUAGCGCGAACGUUCUCAACUAUGACACGCAAAACGCGUGCUCCGUUGAAUGGAGUUUAUCAUG [G74A C96G], GGAUCUUCUCGAUCUAACAAAUAAGACAAAUCUGCCACAAAGCUUGAGAGCAUCUUCGGAUGCAGAGGCGGCAGCCUUCGGUGGUGCGAUAGCGCCAACGUUCUCAACUAUGACACGCAAAACGCGUGCUCCGGUGAAUGGACUUUAUAAUG [A22U C85U U134G G143C C149A] is lower in “polymerase ribozyme fitness (log ratio)” value: -2.97 for the first, no more than -4.2 for the second.

Compared with GGCUCUUCUCGAUCUAACGAUAAAGACAAAUCUGCCACAAAGCUAGAGAGCAUCUUCGGAUGCAGAGGCGGCAGCCUUCGGCGGCGCGAUACCGCCAACGUUCUCAACUAUGACACGCAAAACGCGUGCUCCGUUGAAGGGAGAUUAUCAUG [A3C A19G A21U U45A U82C G92C U139G U144A], GGUUCUUCUCGAUCUAACAAAAAAGACAAAUCUGCCACAAAGCUUGAGAGCAUCUUCGGAUGCAGAGGCGGCAGCCUUCGGUGGCGCGAUAGCGCCAACGUUCUCAACUAUGACACGCAAAACGCGUGCUCCGUGGAAUGGAGUUUAUCAUG [A3U U135G] is higher in “polymerase ribozyme fitness (log ratio)” value: no more than -4.2 for the first, -4.19 for the second.

Compared with GGAUCUUCUCGAUCUAACAAAAAAGACAAAUCUGCCACAAAGCUUGCGAGCAUCUUCGGAUGCAGAGGCGGCAGCCUUCGGGGGCGCGAUAGCGCCAACGUUCUCAACUGUGACACGCAAAACGCGUGCUCCGUUGAAUGGAGUUUAUCAUG [A47C U82G A110G], GGAUCUUCUCGAUCUCACAAAAAAGAGAAAUCUGCCACAAAGCUUGAGGACAUCUUCGGCUGCAGAGGCGGCAGCCUUAGGUGGCGCGAUUGCGCCAACGUUCUGAACUAUGACACGCAAAACGCGUGCUCCGUUGAAUGGAGUUUAUCAUG [A16C C27G A49G G50A A60C C79A A91U C105G] is lower in “polymerase ribozyme fitness (log ratio)” value: -3.62 for the first, no more than -4.2 for the second.

First: GGAUCUUCUCGAACUAACAAAAAUGACAAAUCUACCACAAAGCUUGAGAGCAUCUUCGGAUGCAGAGGCGGCAGCCUUCGGUGGCGCGAUAGCCCCAACGUUCUCAACUAUGACACGCAAAACGCCUGCUCCGUUGAAUGGAGUUUAUCAUG [U13A A24U G34A G94C G126C]
Second: GGAUCUUCUCGAUCUAACAAAAAAGAGAAAUCUGCCACAAAGCUUGAGCGGAUCUUCGGAUGCAGAGGCGGCAGCCUUCGGUGUCGCGAUAGCGCCAGCGUUCUCAACUGUGACACGCAAAACGCGUGCUCCGUUGAAUGGAGUUUAUCAUG [C27G A49C C51G G84U A98G A110G]
The “polymerase ribozyme fitness (log ratio)” value of the first is higher: -3.18 for the first, no more than -4.2 for the second.

First: GGAUCUUCUCGAUCUAACAGAAAAGACAAAUCUGCCACAAAGCUUGAGAGCAUCUUCGGAUGCAGAGGCGGCAGCCUUCGCUGGCGCGAUAGUGCCAACGUUAUCAACUAUGACACGCAAAACGCGUGCUCCGUUGAAUGGAGUUUAUCAUA [A20G G81C C93U C103A G152A]
Second: GGAUCUUCUCGAUCUAACAAAAAAGACAAAUCUGACACAAAGCUUGAGAGCAUCUUCGGAUGCAGAGGCGGCAGCCUUCCGUGGCGCAAUAGCGCCAACGUUUUCAACUGUGACACGCAAAACGCGUGCUCCGUUGAAUGGAGUUUAUAAUG [C35A G80C G88A C103U A110G C149A]
The “polymerase ribozyme fitness (log ratio)” value of the first is higher: -3.74 for the first, no more than -4.2 for the second.

GGAUCUUCUCGAUCUAACAAAAAAGACAAAUCUGCCACAAAGCUUGAGGGCGUCCUCGGAUGCAGAGGCGGCAGCCUUCGGUGACGCGAUCGCGCCAAGGGUCUCAACUAUGACACGCAAAACGCGUGCUCCGUUGAAUGGAGUUUAUCAUG [A49G A52G U55C G84A A91C C99G U101G] and GGAUCUUCUCGAUCUAACAAAAAAGACAAAUCUGCCACAAAGCUUGAGAGCAUCUUCGGAUGCUGGGGCGGCAGCCCUCGGUGGCGCGAUAGCGCGAACGUUGUCAACUAUGACAAGCAAAACGCGUGCUCCGUUGAAUGGAGUUUAUCAUG [A64U A66G U77C C96G C103G C116A] cannot be ordered by “polymerase ribozyme fitness (log ratio)” value: no more than -4.2 for the first, no more than -4.2 for the second.

For GGAUCUUCUCGAUCUAACAAAAAAGACAAAUCUGCCACAAAGCUUGCGAGCAUCUUCGGAUGCAGAGGCGGCUGCCUUCGGUCGCGCGAUAGCGCCAACGUUCUCAACUAUGACACGAAAAACGCGUGCUCCGUUGAAUGGAGUUUAUCAUG [A47C A73U G83C C118A], the “polymerase ribozyme fitness (log ratio)” value was no more than -4.2.
